Molecular target: α4 laminin fragment G^919-1207 (SEQ ID NO:13) (human), Q16363
Experiment: solid-phase saturation binding ELISA: coated G^919-1207 at varying concentrations, soluble integrin at 5 ng/µl, detected with LM609

Sequence of α4 laminin fragment G^919-1207 (SEQ ID NO:13) (human), Q16363 (Q16363 926-1214 G1117S/P1119X limits assumed): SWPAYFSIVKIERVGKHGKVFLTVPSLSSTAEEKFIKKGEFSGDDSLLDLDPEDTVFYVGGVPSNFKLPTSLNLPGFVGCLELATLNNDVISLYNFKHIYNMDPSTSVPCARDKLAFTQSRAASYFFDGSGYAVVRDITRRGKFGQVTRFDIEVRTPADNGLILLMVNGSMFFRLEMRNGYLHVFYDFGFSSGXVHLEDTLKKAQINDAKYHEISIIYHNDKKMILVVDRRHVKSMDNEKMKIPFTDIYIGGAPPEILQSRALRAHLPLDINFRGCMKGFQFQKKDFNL

B1: soluble αvβ3 integrin heterodimer (Chemicon International), P06756 31-992; P05106 27-718 (receptor)
chain 1: FNLDVDSPAEYSGPEGSYFGFAVDFFVPSASSRMFLLVGAPKANTTQPGIVEGGQVLKCDWSSTRRCQPIEFDATGNRDYAKDDPLEFKSHQWFGASVRSKQDKILACAPLYHWRTEMKQEREPVGTCFLQDGTKTVEYAPCRSQDIDADGQGFCQGGFSIDFTKADRVLLGGPGSFYWQGQLISDQVAEIVSKYDPNVYSIKYNNQLATRTAQAIFDDSYLGYSVAVGDFNGDGIDDFVSGVPRAARTLGMVYIYDGKNMSSLYNFTGEQMAAYFGFSVAATDINGDDYADVFIGAPLFMDRGSDGKLQEVGQVSVSLQRASGDFQTTKLNGFEVFARFGSAIAPLGDLDQDGFNDIAIAAPYGGEDKKGIVYIFNGRSTGLNAVPSQILEGQWAARSMPPSFGYSMKGATDIDKNGYPDLIVGAFGVDRAILYRARPVITVNAGLEVYPSILNQDNKTCSLPGTALKVSCFNVRFCLKADGKGVLPRKLNFQVELLLDKLKQKGAIRRALFLYSRSPSHSKNMTISRGGLMQCEELIAYLRDESEFRDKLTPITIFMEYRLDYRTAADTTGLQPILNQFTPANISRQAHILLDCGEDNVCKPKLEVSVDSDQKKIYIGDDNPLTLIVKAQNQGEGAYEAELIVSIPLQADFIGVVRNNEALARLSCAFKTENQTRQVVCDLGNPMKAGTQLLAGLRFSVHQQSEMDTSVKFDLQIQSSNLFDKVSPVVSHKVDLAVLAAVEIRGVSSPDHVFLPIPNWEHKENPETEEDVGPVVQHIYELRNNGPSSFSKAMLHLQWPYKYNNNTLLYILHYDIDGPMNCTSDMEINPLRIKISSLQTTEKNDTVAGQGERDHLITKRDLALSEGDIHTLGCGVAQCLKIVCQVGRLDRGKSAILYVKSLLWTETFMNKENQNHSYSLKSSASFNVIEFPYKNLPIEDITNSTLVTTNVTWGIQPAPMPV
chain 2: GPNICTTRGVSSCQQCLAVSPMCAWCSDEALPLGSPRCDLKENLLKDNCAPESIEFPVSEARVLEDRPLSDKGSGDSSQVTQVSPQRIALRLRPDDSKNFSIQVRQVEDYPVDIYYLMDLSYSMKDDLWSIQNLGTKLATQMRKLTSNLRIGFGAFVDKPVSPYMYISPPEALENPCYDMKTTCLPMFGYKHVLTLTDQVTRFNEEVKKQSVSRNRDAPEGGFDAIMQATVCDEKIGWRNDASHLLVFTTDAKTHIALDGRLAGIVQPNDGQCHVGSDNHYSASTTMDYPSLGLMTEKLSQKNINLIFAVTENVVNLYQNYSELIPGTTVGVLSMDSSNVLQLIVDAYGKIRSKVELEVRDLPEELSLSFNATCLNNEVIPGLKSCMGLKIGDTVSFSIEAKVRGCPQEKEKSFTIKPVGFKDSLIVQVTFDCDCACQAQAEPNSHRCNNGNGTFECGVCRCGPGWLGSQCECSEEDYRPSQQDECSPREGQPVCSQRGECLCGQCVCHSSDFGKITGKYCECDDFSCVRYKGEMCSGHGQCSCGDCLCDSDWTGYYCNCTTRTDTCMSSNGLLCSGRGKCECGSCVCIQPGSYGDTCEKCPTCPDACTFKKECVECKKFDRGALHDENTCNRYCRDEIESVKELKDTGKDAVNCTYKNEDDCVVRFQYYEDSSGKSILYVVEEPECPKGPD
Kd: 4 nM

Source: US20030103975A1
